Data on seven substances can be found in paper PMC8062120.

For test [1], the target named is F-actin (rabbit skeletal muscle actin, polymerized) (rabbit) (UniProt P68135).
In test [2] the target is F-actin (Oryctolagus cuniculus) (UniProt P68135). The settings on record: cited from earlier work.
The target in test [3] is α-actinin-2 (Homo sapiens) (UniProt P35609). The note with it: cited from earlier work.
Chain of α-actinin-2 (Homo sapiens) (P35609 whole entry): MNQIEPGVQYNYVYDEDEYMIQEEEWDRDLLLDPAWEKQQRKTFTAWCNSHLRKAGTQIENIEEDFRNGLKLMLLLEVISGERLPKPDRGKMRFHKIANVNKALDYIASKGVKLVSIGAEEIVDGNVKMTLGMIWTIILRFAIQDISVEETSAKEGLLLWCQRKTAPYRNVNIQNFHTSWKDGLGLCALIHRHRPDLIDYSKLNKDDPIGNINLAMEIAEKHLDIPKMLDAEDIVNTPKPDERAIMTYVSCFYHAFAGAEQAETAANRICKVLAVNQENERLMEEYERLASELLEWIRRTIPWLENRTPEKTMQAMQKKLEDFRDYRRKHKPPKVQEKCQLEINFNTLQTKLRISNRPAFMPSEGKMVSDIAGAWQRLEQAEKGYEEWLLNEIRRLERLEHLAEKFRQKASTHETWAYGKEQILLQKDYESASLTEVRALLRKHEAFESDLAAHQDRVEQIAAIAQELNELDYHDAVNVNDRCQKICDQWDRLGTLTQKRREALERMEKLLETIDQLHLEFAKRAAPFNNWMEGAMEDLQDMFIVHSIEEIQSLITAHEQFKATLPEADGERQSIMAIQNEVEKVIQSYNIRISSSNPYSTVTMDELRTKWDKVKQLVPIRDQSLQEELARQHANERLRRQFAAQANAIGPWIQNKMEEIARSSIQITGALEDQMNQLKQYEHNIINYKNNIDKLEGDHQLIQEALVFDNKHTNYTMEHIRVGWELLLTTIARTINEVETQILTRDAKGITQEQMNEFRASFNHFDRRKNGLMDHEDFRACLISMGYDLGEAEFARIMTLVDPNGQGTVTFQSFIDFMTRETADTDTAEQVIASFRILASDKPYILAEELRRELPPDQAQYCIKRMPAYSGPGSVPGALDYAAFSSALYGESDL

Chain of Titin Zr-7 (Q8WZ42 692-740): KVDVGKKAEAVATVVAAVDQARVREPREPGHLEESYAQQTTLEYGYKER

On to “N-terminal EGFP fusion of myotilin K354/358/359A (from UniProt Q9UBF9 1-498) (natural protein)”, for which the FRAP in Z-discs of C2C12 myotubes, median half-time of fluorescence recovery in test [1] was determined as 32.3 s.
The same measure, in the same setting: to “N-terminal EGFP fusion of myotilin K354/359A (from UniProt Q9UBF9 1-498) (natural protein)” belongs 35.5 s.
Still for that read-out and setting: to “N-terminal EGFP fusion of myotilin K354A (from UniProt Q9UBF9 1-498) (natural protein)” belongs 48.2 s; to “N-terminal EGFP fusion of myotilin K359A (from UniProt Q9UBF9 1-498) (natural protein)”, 64.1 s; to “N-terminal EGFP fusion of myotilin, wild type (from UniProt Q9UBF9 1-498) (natural protein)”, 72.4 s.
For orientation: Kd means the concentration at which binding is half-saturated. On to Palladin (from UniProt Q8WX93), for which the Kd in test [2] was 2100 nM.
As to Titin Zr-7 (from UniProt Q8WZ42), the Kd in test [3] was 480 nM.
